Experimental data reported in publication PMC5474692.
Like-named read-outs stand apart in the source and are kept apart here.

Columns and labels:
Assay in all cases: fluorescence anisotropy against solution viscosity
amFP486/K68M = amFP486/K68M (UniProt Q9U6Y6)
Rosmarinus [1] = target: Rosmarinus
Rosmarinus [2] = target: Rosmarinus; remark: listed apart in the source
Rosmarinus [3] = target: Rosmarinus; remark: listed apart in the source
eqFP486 = target: eqFP486

amFP486/K68M (from UniProt Q9U6Y6 1-229) (natural protein)
stoichiometry N (amFP486/K68M): 4

Rosmarinus
stoichiometry N (Rosmarinus [1]): 4
stoichiometry N (Rosmarinus [2]): 4
stoichiometry N (Rosmarinus [3]): 2

eqFP486 (natural protein)
stoichiometry N (eqFP486): 2
